Measurements taken from IntAct's records for PubMed 24125847.

B1: Sarcoplasmic reticulum histidine-rich calcium-binding protein (Homo sapiens), P23327 (parent)
chain: MGHHRPWLHASVLWAGVASLLLPPAMTQQLRGDGLGFRNRNNSTGVAGLSEEASAELRHHLHSPRDHPDENKDVSTENGHHFWSHPDREKEDEDVSKEYGHLLPGHRSQDHKVGDEGVSGEEVFAEHGGQARGHRGHGSEDTEDSAEHRHHLPSHRSHSHQDEDEDEVVSSEHHHHILRHGHRGHDGEDDEGEEEEEEEEEEEEASTEYGHQAHRHRGHGSEEDEDVSDGHHHHGPSHRHQGHEEDDDDDDDDDDDDDDDDVSIEYRHQAHRHQGHGIEEDEDVSDGHHHRDPSHRHRSHEEDDNDDDDVSTEYGHQAHRHQDHRKEEVEAVSGEHHHHVPDHRHQGHRDEEEDEDVSTERWHQGPQHVHHGLVDEEEEEEEITVQFGHYVASHQPRGHKSDEEDFQDEYKTEVPHHHHHRVPREEDEEVSAELGHQAPSHRQSHQDEETGHGQRGSIKEMSHHPPGHTVVKDRSHLRKDDSEEEKEKEEDPGSHEEDDESSEQGEKGTHHGSRDQEDEEDEEEGHGLSLNQEEEEEEDKEEEEEEEDEERREERAEVGAPLSPDHSEEEEEEEEGLEEDEPRFTIIPNPLDRREEAGGASSEEESGEDTGPQDAQEYGNYQPGSLCGYCSFCNRCTECESCHCDEENMGEHCDQCQHCQFCYLCPLVCETVCAPGSYVDYFSSSLYQALADMLETPEP
partner: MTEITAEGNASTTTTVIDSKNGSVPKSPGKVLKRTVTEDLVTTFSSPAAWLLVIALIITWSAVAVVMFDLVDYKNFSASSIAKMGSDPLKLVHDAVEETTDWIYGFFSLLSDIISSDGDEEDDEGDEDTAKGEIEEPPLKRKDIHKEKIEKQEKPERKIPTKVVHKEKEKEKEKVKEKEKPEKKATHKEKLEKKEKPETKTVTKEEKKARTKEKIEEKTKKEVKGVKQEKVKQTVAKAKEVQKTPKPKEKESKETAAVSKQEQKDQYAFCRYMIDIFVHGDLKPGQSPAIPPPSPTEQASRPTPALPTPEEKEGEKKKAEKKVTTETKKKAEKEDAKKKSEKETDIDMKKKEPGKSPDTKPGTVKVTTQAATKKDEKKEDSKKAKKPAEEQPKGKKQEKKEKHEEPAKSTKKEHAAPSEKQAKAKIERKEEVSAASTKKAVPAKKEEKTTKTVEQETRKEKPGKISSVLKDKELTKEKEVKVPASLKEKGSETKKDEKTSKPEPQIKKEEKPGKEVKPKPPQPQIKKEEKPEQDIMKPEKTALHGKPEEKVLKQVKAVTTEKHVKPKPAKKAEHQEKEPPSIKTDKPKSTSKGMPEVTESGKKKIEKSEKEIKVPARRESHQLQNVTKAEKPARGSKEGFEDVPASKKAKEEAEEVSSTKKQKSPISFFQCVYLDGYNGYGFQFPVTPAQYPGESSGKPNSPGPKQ
B2: Sarcoplasmic reticulum histidine-rich calcium-binding protein (Homo sapiens), P23327 (parent)
chain: B1 chain
partner: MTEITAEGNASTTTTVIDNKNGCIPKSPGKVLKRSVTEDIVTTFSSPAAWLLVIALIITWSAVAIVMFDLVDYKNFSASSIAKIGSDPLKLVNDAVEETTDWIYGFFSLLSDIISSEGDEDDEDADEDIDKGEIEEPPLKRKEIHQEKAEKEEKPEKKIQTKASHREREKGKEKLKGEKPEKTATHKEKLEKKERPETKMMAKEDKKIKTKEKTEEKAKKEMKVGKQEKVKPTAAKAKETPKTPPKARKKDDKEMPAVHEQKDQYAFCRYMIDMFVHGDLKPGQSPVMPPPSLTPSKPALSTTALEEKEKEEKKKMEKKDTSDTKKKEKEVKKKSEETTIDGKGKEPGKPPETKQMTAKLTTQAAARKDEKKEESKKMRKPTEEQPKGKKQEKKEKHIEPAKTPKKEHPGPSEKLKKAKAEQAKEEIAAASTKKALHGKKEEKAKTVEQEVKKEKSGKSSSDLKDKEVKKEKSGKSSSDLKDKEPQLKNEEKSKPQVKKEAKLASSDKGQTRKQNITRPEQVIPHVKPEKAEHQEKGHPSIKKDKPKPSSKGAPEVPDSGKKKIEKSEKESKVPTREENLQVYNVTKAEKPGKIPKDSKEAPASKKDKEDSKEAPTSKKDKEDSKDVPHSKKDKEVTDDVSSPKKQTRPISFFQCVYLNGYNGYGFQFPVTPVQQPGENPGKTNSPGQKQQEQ

Variants of: B1
Conditions: with trdn_rabit TRDN

With S96A as the variant, how does the “effect of a mutation on the interaction” value read?
Its value is “decreasing interaction”.

Variants of: B2
Conditions: with trdn_mouse Trdn

How did the “effect of a mutation on the interaction” value turn out when S96A was run?
Its value is “decreasing interaction”.
